Data published in patent US20240294623A1 (SCHOLAR ROCK, published 2024).
Substitutions are numbered along the chain they refer to.

B1: Ab6 (antibody, V domains shown)
VH: EVQLVESGGGLVQPGGSLRLSCTASGFTFSSFSMDWVRQAPGKGLEWVSYISPSADTIYYADSVKGRFTISRDNAKNTLYLQMNSLRAEDTAVYYCARGVLDYGDMLMPWGQGTLVTVSS
VL: DIQMTQSPSSLSASVGDRVTITCQASQDITNYLNWYQQKPGKAPKLLIYDASNLETGVPSRFSGSGSGTDFTFTISSLQPEDIATYYCQQADNHPPWTFGGGTKVEIKR
notes: Fully human IgG4/kappa
B2: Ab3 (antibody, V domains shown)
VH: EVQLLESGGGLVQPGGSLRLSCAASGFTFRNYAMSWVRQAPGKGLEWVSSISGSGGATYYADSVKGRFTISRDNSKNTLYLQMNSLRAEDTAVYYCARVSSGHWDFDYWGQGTLVTVSS
VL: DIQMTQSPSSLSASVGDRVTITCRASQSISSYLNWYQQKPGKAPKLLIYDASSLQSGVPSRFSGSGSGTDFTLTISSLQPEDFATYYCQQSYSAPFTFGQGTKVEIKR
B3: Ab21 (antibody, V domains shown)
VH: B1 VH with T23A, S54D, D56S, T78S, M108D
VL: DIQMTQSPSSLSASVGDRVTITCQASQDITNYLNWYQQKPGKAPKLLIYDASNLETGVPSRFSGSGSGTDFTFTISSLQPEDIATYYCQQADNHPPWTFGGGTKVEIK
B4: Ab33 (antibody, V domains shown)
VH: B1 VH with T23A, D35N, R98H, M108D
VL: B3 VL
B5: Ab25 (antibody, V domains shown)
VH: B1 VH with T23A, S30G, S54D, D56S, T78S, M108D
VL: B3 VL
B6: Ab26 (antibody, V domains shown)
VH: B1 VH with T23A, S54D, D56S, M108D
VL: B3 VL
B7: Ab32 (antibody, V domains shown)
VH: B1 VH with T23A, D35N, L101W, Y103M, M108D
VL: B3 VL
B8: Ab29 (antibody, V domains shown)
VH: EVQLVESGGGLVQPGRSLRLSCAASGFTFSSFAMNWVRQAPGKGLEWVSYISPDASTIYYAGSVKGRFTISRDNAKNSLYLQMNSLRAEDTAVYYCVRAVLDYGDMLDPWGQGTLVTVSS
VL: B3 VL
B9: Ab23 (antibody, V domains shown)
VH: B1 VH with T23A, D35N, M108D
VL: B3 VL
B10: Ab4 (antibody, V domains shown)
VH: B1 VH with T23A, F32Y, D35N, P53S, A55S, D56S, T78S, M108D
VL: B3 VL
B11: Ab5 (antibody, V domains shown)
VH: B1 VH with T23A, S54D, D56S, T78S, M108D
VL: B3 VL
B12: Ab46 (hIgG4) (antibody, V domains shown)
VH: B2 VH with R30A, N31D, S35T, S50A, G56A, Y60F, F106Y
VL: DIQLTQSPSSLSASVGDRVTITCRASQSISSYLNWYQQKPGKAPKLLIYAASGLESGVPSRFSGSGSGTDFTLTISSLQPEDFATYYCQQTYGVPLTFGGGTKVEIK

Biological target: mLRRC33-proTGFβ1 (murine, UniProt Q8BMT4 20-651)
Test: MSD-SET

Row | Kd [nM] | Binder
1 | 0.048 | B1

Biological target: T1, hLTBP1-proTGFβ1 (human, UniProt Q14766 347-1721; P01137 30-390, limits assumed)
T1 construct: Large latent complex (LLC): proTGFβ1 dimer disulfide-linked to one presenting molecule; recombinant, purified, biotinylated in BLI/SPR; The same id is used for the complex made by transfected cells in the reporter assays; also called human LTBP1-proTGFβ1 complex; LTBP1-ProTGFb1
Test: MSD-SET

T1 sequence (Q14766 347-1721 limits assumed, chain 1 of 2): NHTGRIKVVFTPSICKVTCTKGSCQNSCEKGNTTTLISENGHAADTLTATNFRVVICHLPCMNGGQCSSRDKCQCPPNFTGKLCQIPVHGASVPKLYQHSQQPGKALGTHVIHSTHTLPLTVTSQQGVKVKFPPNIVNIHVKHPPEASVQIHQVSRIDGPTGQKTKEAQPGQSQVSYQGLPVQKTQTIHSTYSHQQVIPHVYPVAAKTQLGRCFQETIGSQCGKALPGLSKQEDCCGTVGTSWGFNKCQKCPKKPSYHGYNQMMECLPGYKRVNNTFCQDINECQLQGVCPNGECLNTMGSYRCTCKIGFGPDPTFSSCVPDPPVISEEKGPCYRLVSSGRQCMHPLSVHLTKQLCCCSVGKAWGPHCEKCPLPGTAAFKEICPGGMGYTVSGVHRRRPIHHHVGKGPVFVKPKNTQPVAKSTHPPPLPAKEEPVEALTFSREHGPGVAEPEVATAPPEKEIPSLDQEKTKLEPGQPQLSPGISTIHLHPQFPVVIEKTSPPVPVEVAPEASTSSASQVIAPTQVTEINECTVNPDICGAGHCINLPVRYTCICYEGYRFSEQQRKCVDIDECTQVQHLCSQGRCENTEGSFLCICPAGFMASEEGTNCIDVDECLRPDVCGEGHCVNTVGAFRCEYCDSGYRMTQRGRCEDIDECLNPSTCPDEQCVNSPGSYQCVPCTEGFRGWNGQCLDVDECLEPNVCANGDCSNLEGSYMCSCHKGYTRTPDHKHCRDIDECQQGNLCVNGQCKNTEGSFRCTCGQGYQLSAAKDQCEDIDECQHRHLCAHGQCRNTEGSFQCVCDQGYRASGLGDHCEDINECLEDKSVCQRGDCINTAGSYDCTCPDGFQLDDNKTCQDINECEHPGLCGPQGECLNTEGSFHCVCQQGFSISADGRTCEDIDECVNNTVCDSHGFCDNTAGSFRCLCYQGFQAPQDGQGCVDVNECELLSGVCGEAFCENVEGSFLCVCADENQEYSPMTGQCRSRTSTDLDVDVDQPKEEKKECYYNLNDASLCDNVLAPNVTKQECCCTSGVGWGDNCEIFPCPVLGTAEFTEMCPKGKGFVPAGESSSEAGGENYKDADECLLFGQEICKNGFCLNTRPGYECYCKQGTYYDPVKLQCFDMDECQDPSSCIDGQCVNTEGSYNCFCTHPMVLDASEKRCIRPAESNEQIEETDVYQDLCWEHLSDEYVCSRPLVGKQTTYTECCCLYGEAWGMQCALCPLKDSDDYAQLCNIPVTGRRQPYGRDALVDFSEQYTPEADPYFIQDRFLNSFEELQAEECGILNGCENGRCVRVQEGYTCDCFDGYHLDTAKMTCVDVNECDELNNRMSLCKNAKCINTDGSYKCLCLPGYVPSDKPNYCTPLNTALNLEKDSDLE
T1 sequence (P01137 30-390 limits assumed, chain 2 of 2): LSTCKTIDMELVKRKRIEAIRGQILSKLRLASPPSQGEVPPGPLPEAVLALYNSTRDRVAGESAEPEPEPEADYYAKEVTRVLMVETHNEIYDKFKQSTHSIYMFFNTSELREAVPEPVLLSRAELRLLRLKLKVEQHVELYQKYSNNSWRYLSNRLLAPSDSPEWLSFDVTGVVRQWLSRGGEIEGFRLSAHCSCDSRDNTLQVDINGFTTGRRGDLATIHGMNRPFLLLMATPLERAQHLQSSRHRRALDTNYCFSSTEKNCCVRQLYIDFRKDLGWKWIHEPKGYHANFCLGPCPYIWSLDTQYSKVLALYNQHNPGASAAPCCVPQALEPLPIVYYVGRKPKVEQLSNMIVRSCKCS

Row | Kd [nM] | Binder
2 | 0.018 | B1

Biological target: T2, hLTBP3-proTGFβ1 (human, UniProt Q9NS15 44-1303; P01137 30-390, limits assumed)
T2 construct: LLC as m1; Same id used for the cell-made complex in reporter assays; also called human LTBP3-proTGFβ1 complex; LTBP3-ProTGFb1
Test: MSD-SET

T2 sequence (Q9NS15 44-1303 limits assumed, chain 1 of 2): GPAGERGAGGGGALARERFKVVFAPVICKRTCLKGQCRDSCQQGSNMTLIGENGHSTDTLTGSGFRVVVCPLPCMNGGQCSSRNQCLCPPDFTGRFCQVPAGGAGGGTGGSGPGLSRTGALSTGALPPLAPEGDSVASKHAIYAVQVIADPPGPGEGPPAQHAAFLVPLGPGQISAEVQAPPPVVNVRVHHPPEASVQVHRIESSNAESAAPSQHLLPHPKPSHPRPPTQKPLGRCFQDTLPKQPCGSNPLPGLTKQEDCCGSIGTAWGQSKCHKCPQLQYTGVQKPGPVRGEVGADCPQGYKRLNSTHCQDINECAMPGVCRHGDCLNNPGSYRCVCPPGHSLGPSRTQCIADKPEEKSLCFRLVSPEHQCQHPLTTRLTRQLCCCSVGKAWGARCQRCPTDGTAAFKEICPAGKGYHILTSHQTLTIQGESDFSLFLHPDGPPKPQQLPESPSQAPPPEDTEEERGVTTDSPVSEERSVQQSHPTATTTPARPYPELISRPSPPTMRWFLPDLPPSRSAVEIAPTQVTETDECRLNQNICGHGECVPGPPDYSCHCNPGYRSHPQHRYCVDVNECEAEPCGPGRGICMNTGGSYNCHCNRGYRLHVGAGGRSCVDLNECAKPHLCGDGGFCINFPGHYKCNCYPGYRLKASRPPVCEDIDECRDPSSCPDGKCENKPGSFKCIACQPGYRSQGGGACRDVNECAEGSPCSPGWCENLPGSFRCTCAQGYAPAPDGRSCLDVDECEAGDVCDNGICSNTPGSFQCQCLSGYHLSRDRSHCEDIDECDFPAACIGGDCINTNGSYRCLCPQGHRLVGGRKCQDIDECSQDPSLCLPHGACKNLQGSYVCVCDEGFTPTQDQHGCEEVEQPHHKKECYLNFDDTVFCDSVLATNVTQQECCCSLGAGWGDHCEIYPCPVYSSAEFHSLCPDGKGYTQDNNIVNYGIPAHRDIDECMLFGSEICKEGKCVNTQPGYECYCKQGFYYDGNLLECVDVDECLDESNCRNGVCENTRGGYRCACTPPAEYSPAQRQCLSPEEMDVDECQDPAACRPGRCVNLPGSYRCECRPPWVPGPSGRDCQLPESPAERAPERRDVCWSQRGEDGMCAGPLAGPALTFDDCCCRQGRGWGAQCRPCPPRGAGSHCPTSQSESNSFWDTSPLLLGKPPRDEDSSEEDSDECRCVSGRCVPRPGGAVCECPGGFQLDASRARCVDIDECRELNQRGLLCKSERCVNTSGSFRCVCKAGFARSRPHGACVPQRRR
T2 sequence (P01137 30-390 limits assumed, chain 2 of 2): as the sequence (P01137 30-390 limits assumed, chain 2 of 2) above

Row | Kd [nM] | Binder
3 | 0.029 | B1

Biological target: T3, hGARP-proTGFβ1 (human, UniProt Q14392 18-627; P01137 30-390, limits assumed)
T3 construct: LLC as m1; Same id used for the cell-surface complex in reporter assays; also called human GARP-proTGFβ1 complex; GARP-ProTGFb1
Test: MSD-SET

T3 sequence (Q14392 18-627 limits assumed, chain 1 of 2): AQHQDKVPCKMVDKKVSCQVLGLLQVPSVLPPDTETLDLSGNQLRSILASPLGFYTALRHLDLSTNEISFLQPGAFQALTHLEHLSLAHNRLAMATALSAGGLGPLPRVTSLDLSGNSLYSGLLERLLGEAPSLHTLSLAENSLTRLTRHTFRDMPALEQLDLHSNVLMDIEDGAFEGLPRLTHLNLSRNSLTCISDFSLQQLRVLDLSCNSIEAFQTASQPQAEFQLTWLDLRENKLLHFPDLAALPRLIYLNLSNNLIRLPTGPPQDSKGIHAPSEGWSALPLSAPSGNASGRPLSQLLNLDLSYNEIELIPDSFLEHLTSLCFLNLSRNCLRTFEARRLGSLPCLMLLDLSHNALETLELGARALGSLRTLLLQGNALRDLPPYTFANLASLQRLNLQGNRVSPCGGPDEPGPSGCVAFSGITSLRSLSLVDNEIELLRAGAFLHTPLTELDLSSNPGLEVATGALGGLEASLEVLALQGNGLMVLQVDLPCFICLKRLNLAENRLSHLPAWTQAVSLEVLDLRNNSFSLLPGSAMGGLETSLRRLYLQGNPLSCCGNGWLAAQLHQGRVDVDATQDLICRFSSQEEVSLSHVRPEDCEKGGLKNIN
T3 sequence (P01137 30-390 limits assumed, chain 2 of 2): as the sequence (P01137 30-390 limits assumed, chain 2 of 2) above

Row | Kd [nM] | Binder
4 | 0.027 | B1

Biological target: T4, hLRRC33-proTGFβ1 (human, UniProt Q86YC3 19-650; P01137 30-390, limits assumed)
T4 construct: LLC as m1; Same id used for the cell-surface complex in reporter assays; also called human LRRC33-proTGFβ1 complex; LRRC33-ProTGFb1
Test: MSD-SET

T4 sequence (Q86YC3 19-650 limits assumed, chain 1 of 2): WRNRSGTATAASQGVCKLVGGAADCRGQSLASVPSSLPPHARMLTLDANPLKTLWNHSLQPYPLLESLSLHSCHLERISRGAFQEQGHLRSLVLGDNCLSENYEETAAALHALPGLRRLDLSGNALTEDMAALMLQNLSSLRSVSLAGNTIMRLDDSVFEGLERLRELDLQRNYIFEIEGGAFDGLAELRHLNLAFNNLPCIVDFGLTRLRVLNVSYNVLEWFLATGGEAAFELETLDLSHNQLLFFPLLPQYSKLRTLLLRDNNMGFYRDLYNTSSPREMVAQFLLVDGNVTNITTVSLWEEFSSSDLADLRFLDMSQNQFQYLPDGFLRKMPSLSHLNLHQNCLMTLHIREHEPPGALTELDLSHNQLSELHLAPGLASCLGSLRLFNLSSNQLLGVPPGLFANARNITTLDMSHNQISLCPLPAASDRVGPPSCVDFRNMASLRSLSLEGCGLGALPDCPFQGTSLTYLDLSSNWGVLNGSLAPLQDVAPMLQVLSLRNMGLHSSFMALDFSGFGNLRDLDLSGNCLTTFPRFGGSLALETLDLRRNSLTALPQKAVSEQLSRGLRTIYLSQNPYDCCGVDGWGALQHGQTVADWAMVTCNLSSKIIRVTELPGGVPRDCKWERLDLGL
T4 sequence (P01137 30-390 limits assumed, chain 2 of 2): as the sequence (P01137 30-390 limits assumed, chain 2 of 2) above

Row | Kd [nM] | Binder
5 | 0.063 | B1

Biological target: T5, mLTBP1-proTGFβ1 (mouse)
T5 construct: Murine LLC; also called murine LTBP1-proTGFβ1 complex
Test: MSD-SET

Row | Kd [nM] | Binder
6 | 0.024 | B1

Biological target: T6, mLTBP3-proTGFβ1 (mouse)
T6 construct: Murine LLC; also called murine LTBP3-proTGFβ1 complex
Test: MSD-SET

Row | Kd [nM] | Binder
7 | 0.028 | B1

Biological target: T7, mGARP-proTGFβ1 (mouse)
T7 construct: Murine LLC; also called murine GARP-proTGFβ1 complex
Test: MSD-SET

Row | Kd [nM] | Binder
8 | 0.021 | B1

Biological target: T1, hLTBP1-proTGFβ1
Test: BLI (Octet)

Row | Kd [nM] | Binder
9 | 0.47 | B2
10 | 0.225 | B3
11 | 0.207 | B1
12 | 0.179 | B4
13 | 0.217 | B5
14 | 0.221 | B6
15 | 0.269 | B7
16 | 0.189 | B8
17 | 0.417 | B9

Biological target: T2, hLTBP3-proTGFβ1
Test: BLI (Octet)

Row | Kd [nM] | Binder
18 | 0.459 | B2
19 | 0.268 | B3
20 | 0.123 | B1
21 | 0.111 | B4
22 | 0.152 | B5
23 | 0.173 | B6
24 | 0.215 | B7
25 | 0.121 | B8
26 | 0.468 | B9

Biological target: T3, hGARP-proTGFβ1
Test: BLI (Octet)

Row | Kd [nM] | Binder
27 | 17.3 | B2
28 | 0.833 | B3
29 | 0.404 | B1
30 | 0.265 | B4
31 | 0.488 | B5
32 | 0.625 | B6
33 | 0.496 | B7
34 | 0.307 | B8
35 | 1.34 | B9

Biological target: T4, hLRRC33-proTGFβ1
Test: BLI (Octet)

Row | Kd [nM] | Binder
36 | 8.52 | B2
37 | 0.455 | B3
38 | 0.336 | B1
39 | 0.339 | B4
40 | 0.409 | B5
41 | 0.36 | B6
42 | 0.698 | B7
43 | 0.302 | B8
44 | 0.455 | B9

Biological target: T1, hLTBP1-proTGFβ1
Test: MSD-SET, hIgG4
Method: (§1) For solution equilibrium titration-based binding assays, protein complexes that comprise one of the presenting molecules such as those shown above may be employed as antigen (presenting molecule-TGFβ1 complex, or an LLC). Test antibodies are allowed to form antigen-antibody complex in solution. Antigen-antibody reaction mixtures are incubated to allow an equilibrium to be reached; the amount of the antigen-antibody complex present in the assay reactions can be measured by suitable means well known in the art. As compared to BLI-based assays, SET-based assays are less affected by on/off rates of the antigen-antibody complex, allowing sensitive detection of very high affinity interactions.

Row | Kd [nM] | Binder
45 | 13 | B2
46 | 0.018 | B1
47 | 0.011 | B4
48 | 0.028 | B6
49 | 0.037 | B7
50 | 0.012 | B8
51 | 4.6 | B10

Biological target: T2, hLTBP3-proTGFβ1
Test: MSD-SET, hIgG4
Method: as §1

Row | Kd [nM] | Binder
52 | 16.2 | B2
53 | 0.029 | B1
54 | 0.007 | B4
55 | 0.023 | B6
56 | 0.026 | B7
57 | 0.011 | B8
58 | 5.5 | B10

Biological target: T3, hGARP-proTGFβ1
Test: MSD-SET, hIgG4
Method: as §1

Row | Kd [nM] | Binder
59 | 28 | B2
60 | 0.027 | B1
61 | 0.0078 | B4
62 | 0.014 | B6
63 | 0.015 | B7
64 | 0.0055 | B8
65 | 2.5 | B10

Biological target: T4, hLRRC33-proTGFβ1
Test: MSD-SET, hIgG4
Method: as §1

Row | Kd [nM] | Binder
66 | 35 | B2
67 | 0.063 | B1
68 | 0.046 | B4
69 | 0.13 | B6
70 | 0.087 | B7
71 | 0.043 | B8
72 | 2.1 | B10

Biological target: T1, hLTBP1-proTGFβ1
Test: cell-based or functional assay

Row | IC50, reporter cell assay [nM] | Binder
73 | 1.6 | B3
74 | 1.3 | B11
75 | 1.6 | B4
76 | 6.1 | B5
77 | 0.7 | B6
78 | 0.5 | B8
79 | 5.2 | B10
80 | 0.8 | B9

Biological target: T2, hLTBP3-proTGFβ1
Test: cell-based or functional assay

Row | IC50, reporter cell assay [nM] | Binder
81 | 0.8 | B3
82 | 1 | B11
83 | 1.1 | B4
84 | 0.51 | B5
85 | 0.7 | B6
86 | 0.8 | B8
87 | 5.6 | B10
88 | 0.9 | B9

Biological target: T3, hGARP-proTGFβ1
Test: cell-based or functional assay

Row | IC50, reporter cell assay [nM] | Binder
89 | 0.4 | B3
90 | 0.1 | B11
91 | 0.2 | B4
92 | 0.4 | B5
93 | 0.3 | B6
94 | 0.3 | B8
95 | 0.8 | B10
96 | 0.3 | B9

Biological target: T4, hLRRC33-proTGFβ1
Test: cell-based or functional assay

Row | IC50, reporter cell assay [nM] | Binder
97 | 0.6 | B3
98 | 0.6 | B11
99 | 0.7 | B4
100 | 0.7 | B5
101 | 0.3 | B6
102 | 0.5 | B8
103 | 3.5 | B10
104 | 0.6 | B9

Biological target: endogenous LTBP-proTGFβ1 of human LN229 cells (human, UniProt P01137 30-390)
Test: cell-based or functional assay

Chain of endogenous LTBP-proTGFβ1 of human LN229 cells (P01137 30-390): as the sequence (P01137 30-390 limits assumed, chain 2 of 2) above

Row | mAb IC50 [nM] | Binder
105 | 0.95 | B12

Biological target: T1, hLTBP1-proTGFβ1
Test: cell-based or functional assay
Remark: another data set of the same source

Row | IC50, in vitro potency assay [nM] | Binder
106 | 24.3 | B2

Biological target: T2, hLTBP3-proTGFβ1
Test: cell-based or functional assay
Remark: another data set of the same source

Row | IC50, in vitro potency assay [nM] | Binder
107 | 10.4 | B2

Biological target: T3, hGARP-proTGFβ1
Test: cell-based or functional assay
Remark: another data set of the same source

Row | IC50, in vitro potency assay [nM] | Binder
108 | 0.981 | B2

Biological target: T4, hLRRC33-proTGFβ1
Test: cell-based or functional assay
Remark: another data set of the same source

Row | IC50, in vitro potency assay [nM] | Binder
109 | 0.858 | B2
